Measured values: patent US20160237414A1 (CHILDREN S HOSPITAL MEDICAL CENTER, published 2016)
Residue numbers refer to the chain shown, from its start. Names and notes keep the numbering of the source. Primed or numbered codes have the meaning given here. No end group written: not given here. FITC′ = fluorescein isothiocyanate (fluorescent probe)

Key:
[1] = biological target: T1, LIMP-2 in Gba1-/- fibroblasts (endogenous, detected by anti-LIMP2 immunofluorescence) (UniProt O35114 1-478, limits assumed); test: cell-based or functional assay
T1 sequence (looked up): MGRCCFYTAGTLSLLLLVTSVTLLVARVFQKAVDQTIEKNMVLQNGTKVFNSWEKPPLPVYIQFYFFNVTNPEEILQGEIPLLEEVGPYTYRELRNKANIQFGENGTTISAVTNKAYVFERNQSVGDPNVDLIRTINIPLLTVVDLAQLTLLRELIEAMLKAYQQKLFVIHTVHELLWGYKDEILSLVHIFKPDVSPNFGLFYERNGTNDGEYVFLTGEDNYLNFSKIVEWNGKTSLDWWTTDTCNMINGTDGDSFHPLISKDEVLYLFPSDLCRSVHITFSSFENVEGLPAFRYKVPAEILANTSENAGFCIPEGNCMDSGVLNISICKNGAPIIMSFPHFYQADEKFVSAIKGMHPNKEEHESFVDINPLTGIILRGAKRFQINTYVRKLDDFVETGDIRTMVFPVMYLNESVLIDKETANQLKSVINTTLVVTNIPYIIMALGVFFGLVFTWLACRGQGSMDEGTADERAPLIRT

[2] = biological target: T2, Purified luminal domain LIMP-2 (ld-LIMP2) (UniProt Q14108 28-433, limits assumed); test: peptide binding to ldLIMP-2 at pH 6.8 (FIG. 9)
T2 construct: domain: luminal domain; also called LIMP-2/SCARB2
T2 sequence (looked up): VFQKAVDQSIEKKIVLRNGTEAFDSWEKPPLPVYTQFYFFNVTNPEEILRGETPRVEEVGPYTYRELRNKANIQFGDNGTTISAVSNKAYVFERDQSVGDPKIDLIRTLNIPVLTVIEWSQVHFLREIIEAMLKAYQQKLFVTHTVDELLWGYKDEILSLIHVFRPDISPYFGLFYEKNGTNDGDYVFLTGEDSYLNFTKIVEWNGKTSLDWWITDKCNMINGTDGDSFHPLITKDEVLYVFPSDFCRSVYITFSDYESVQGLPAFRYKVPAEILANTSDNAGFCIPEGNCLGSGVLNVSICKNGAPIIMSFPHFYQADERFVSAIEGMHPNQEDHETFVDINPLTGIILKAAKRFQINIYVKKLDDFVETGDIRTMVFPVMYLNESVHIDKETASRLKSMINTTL

[3] = biological target: T2, Purified luminal domain LIMP-2 …; test: peptide binding to ldLIMP2 at pH 6.8 (FIG. 9)
[4] = biological target: T2, Purified luminal domain LIMP-2 …; test: fluorescence polarization, FITC peptide titrated, ldLIMP2 fixed at 50 nM (FIG. 7A)
Experimental: FIG. 7A-FIG. 7C: Binding and competition of fluorescent labeled or unlabeled DSPIIV (SEQ ID NO 15) GCase peptides to ldLIMP2. The change (δmP) in fluorescence polarization is plotted on the ordinate and the increasing concentrations of the various peptides are on the abscissa. FIG. 7A depicts saturation kinetics under conditions in which the concentration of ldLIMP2 (50 nM) was fixed. […] FIG. 7B depicts a similar study using unlabeled peptides as competitors. […] Each of the unlabeled peptides “competed” with the labeled peptides in the expected ratios. FIG. 7C depicts a competition study in which labeled (WT*) and unlabeled (WT) peptides were used in complementary competition studies.
Fluorescence Polarization: The DSPIIV (SEQ ID NO 15) and its mutants, and DDQRLLL (SEQ ID NO 14) peptides (FITC labeled or non-labeled) were synthesized (American Peptide Co., Vista, Calif.). Lyophilized peptides were solubilized in acetonitrile and then were diluted at least 10,000-fold into the reactions for fluorescence polarization assessments. The reactions were done at least in duplicate at various peptide and LIMP-2 concentrations (SpectraMax M5, Molecular Device). Fluorescence polarization data were collected and analyzed with SoftMax Pro 5.0 software. Reaction mixtures contained 100 mM phosphate, pH 6.8 and 1 mM DTT.

[5] = biological target: T2, Purified luminal domain LIMP-2 …; test: in vitro immunoprecipitation of purified GCase with ldLIMP-2 (1:1) on anti-LIMP2 beads, immunoblot (FIG. 6B)
Excerpt: Immunoprecipitation of GCases with mutations in the TKD sequence: For immunoblots, Gba1 knockout mouse fibroblasts (null/null) were transfected with the GBA1 constructs (WT or mutants) and expressed for 5 days. The GCases from harvested cell lysates were purified using a GCase antibody affinity column (Dynabeads protein G crosslinked (BS3) with rabbit anti-human GCase antibody). […] Aliquots of each step (loading, wash and eluent) were collected and analyzed on 12.5% SDS gels. Immunoblots were developed using anti-human GCase antibody and AP conjugated color development kits. Mock experiments with either non-LIMP2 proteins added or no GCases added, were used as control. The quantitations of these immunoprecipitation data were obtained from densitometry measurements of the gels. The no-LIMP-2 bars are the controls for comparison, since GCase was processed through all steps without LIMP-2 to account for any losses of GCase; About 50% of the GCase was lost during processing.

B1: ASPIIV (SEQ ID NO 16) (D399A) GCase (enzyme)
chain: ARPCIPKSFGYSSVVCVCNATYCDSFDPPTFPALGTFSRYESTRSGRRMELSMGPIQANHTGTGLLLTLQPEQKFQKVKGFGGAMTDAAALNILALSPPAQNLLLKSYFSEEGIGYNIIRVPMASCDFSIRTYTYADTPDDFQLHNFSLPEEDTKLKIPLIHRALQLAQRPVSLLASPWTSPTWLKTNGAVNGKGSLKGQPGDIYHQTWARYFVKFLDAYAEHKLQFWAVTAENEPSAGLLSGYPFQCLGFTPEHQRDFIARDLGPTLANSTHHNVRLLMLDDQRLLLPHWAKVVLTDPEAAKYVHGIAVHWYLDFLAPAKATLGETHRLFPNTMLFASEACVGSKFWEQSVRLGSWDRGMQYSHSIITNLLYHVVGWTDWNLALNPEGGPNWVRNFVASPIIVDITKDTFYKQPMFYHLGHFSKFIPEGSQRVGLVASQKNDLDAVALMHPDGSAVVVVLNRSSKDVPLTIKDPAVGFLETISPGYSIHTYLWRRQ
% Secreted [1]: 36%

B2: DSPAIV (SEQ ID NO 17) (I402A) GCase (enzyme)
chain: B1 chain with A399D, I402A
% Secreted [1]: 22%

B3: DSPIAV (SEQ ID NO 18) (I403A) GCase (enzyme)
chain: B1 chain with A399D, I403A
% Secreted [1]: 23%

B4: DSPAAV (SEQ ID NO 19) (I402A+I403A) GCase, double mutant (enzyme)
chain: B1 chain with A399D, I402A, I403A
% Secreted [1]: 83%

ASPAAV-{FITC′} (also called ASPAAP) [ASPAAV peptide (triple mutant: alanines for D399, I402 and I403), FITC labeled]
percent decrease in binding [2]: ~90%
binding relative to WT [3]: < 10 % of WT

DSPIIV-{FITC′} (also called WT peptide; WT*) [DSPIIV (SEQ ID NO 15) GCase peptide, FITC labeled]
EC50 [4]: ~50 nM

B5: AAA GCase (triple alanine mutant in the TKD sequence, amino acids 407-409) (enzyme)
chain: B1 chain with A399D, T407A, K408A, D409A
notes: Made from full length pCMV-GCase-GFP or YFP vectors; also called AAA mutant
binding result [5]: no binding
